Measured values reported in publication PMC546145.
Read-outs that look alike come from different tables or passages of the source.

Tests used:
Test in all cases: competition EMSA
[1] = target: T1, Ku heterodimer, Ku70 subunit;Ku heterodimer, Ku80 subunit (human;human, UniProt P12956;P13010 1-609;1-732, |)
[2] = target: T1, Ku heterodimer, Ku70 subunit;Ku …; remark: listed apart in the source
[3] = target: T1, Ku heterodimer, Ku70 subunit;Ku …; remark: listed apart in the source

T1 sequence (P12956 whole entry, chain 1 of 2): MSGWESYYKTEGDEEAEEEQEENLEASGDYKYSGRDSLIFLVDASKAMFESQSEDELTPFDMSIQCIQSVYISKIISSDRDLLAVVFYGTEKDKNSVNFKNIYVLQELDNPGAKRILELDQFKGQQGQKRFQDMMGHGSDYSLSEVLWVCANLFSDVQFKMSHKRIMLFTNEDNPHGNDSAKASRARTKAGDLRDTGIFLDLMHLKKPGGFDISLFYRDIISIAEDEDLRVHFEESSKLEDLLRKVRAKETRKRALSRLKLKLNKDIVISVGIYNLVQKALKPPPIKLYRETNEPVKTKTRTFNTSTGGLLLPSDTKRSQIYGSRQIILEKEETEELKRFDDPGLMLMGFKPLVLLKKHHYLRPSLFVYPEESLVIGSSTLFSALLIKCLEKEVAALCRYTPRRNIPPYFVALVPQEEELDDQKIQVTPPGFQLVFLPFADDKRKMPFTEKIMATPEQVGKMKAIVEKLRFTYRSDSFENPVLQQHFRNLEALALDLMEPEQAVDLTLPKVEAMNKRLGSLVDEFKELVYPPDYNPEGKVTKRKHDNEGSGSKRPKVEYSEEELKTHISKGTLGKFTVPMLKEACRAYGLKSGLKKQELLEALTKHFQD
T1 sequence (P13010 whole entry, chain 2 of 2): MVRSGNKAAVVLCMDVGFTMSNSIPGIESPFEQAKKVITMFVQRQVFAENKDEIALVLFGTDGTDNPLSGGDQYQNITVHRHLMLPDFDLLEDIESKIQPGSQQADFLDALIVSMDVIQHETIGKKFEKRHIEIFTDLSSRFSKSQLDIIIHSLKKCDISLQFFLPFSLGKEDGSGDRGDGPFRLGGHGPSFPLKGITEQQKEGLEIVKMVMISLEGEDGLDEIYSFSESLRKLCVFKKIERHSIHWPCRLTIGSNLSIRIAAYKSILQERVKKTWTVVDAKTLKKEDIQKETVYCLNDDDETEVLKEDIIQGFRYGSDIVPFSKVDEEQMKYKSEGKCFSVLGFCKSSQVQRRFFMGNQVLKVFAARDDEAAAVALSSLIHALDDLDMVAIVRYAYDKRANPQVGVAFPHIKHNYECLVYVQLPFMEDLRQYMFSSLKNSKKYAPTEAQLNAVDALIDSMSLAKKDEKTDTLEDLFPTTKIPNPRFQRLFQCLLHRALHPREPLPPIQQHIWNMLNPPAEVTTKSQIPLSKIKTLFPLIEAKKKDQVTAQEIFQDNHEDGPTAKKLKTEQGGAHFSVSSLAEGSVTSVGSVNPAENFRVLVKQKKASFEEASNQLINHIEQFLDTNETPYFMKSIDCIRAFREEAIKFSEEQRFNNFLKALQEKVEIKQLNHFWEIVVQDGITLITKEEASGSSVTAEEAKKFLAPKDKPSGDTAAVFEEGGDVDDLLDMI

B1: MP/5B + Pt (dsDNA)
DNA 1: CCCCTCTCCTTCTTGGCTTCTTCCTTCCCC
DNA 2: GGGGAAGGAAGAAGCCAAGAAGGAGAGGGG
modifications: cisplatin adduct at central GG of strand 1 (15-16); 5' biotin on strand 2
binding result [1]: binds

B2: MP/3B + Pt (dsDNA)
DNA 1: CCCCTCTCCTTCTTGGCTTCTTCCTTCCCC
DNA 2: GGGGAAGGAAGAAGCCAAGAAGGAGAGGGG
modifications: cisplatin adduct at central GG of strand 1 (15-16); 3' biotin on strand 2
binding result [2]: binds

B3: 5P/5B undamaged (dsDNA)
DNA 1: CCCCTGGCTTTCTTTTCCTCTTCCTTCCCC
DNA 2: GGGGAAGGAAGAGGAAAAGAAAGCCAGGGG
modifications: 5' biotin on strand 2
binding result [3]: binds
